Reference: PMC8309162, “Identification and Functional Characterization of Genes Encoding Phenylacetaldehyde Reductases That Catalyze the Last Step in the Biosynthesis of Hydroxytyrosol in Olive” (Plants, 2021)

Test system: T1, O=CCc1ccc(O)c(O)c1
T1 construct: tag cleavage not mentioned
Assay: HPLC quantification of hydroxytyrosol formed
Type: biochemical, Olea europaea
Details: 0.25-8 mM substrate, Michaelis-Menten, standard assay 5 mM NADPH, 50 mM Tris-HCl pH 8.0, 30 °C (pH of the kinetic run not stated; optimum pH 6.5)

Sequence of OePAR1.1 (Olea europaea) (chain, as listed by the source): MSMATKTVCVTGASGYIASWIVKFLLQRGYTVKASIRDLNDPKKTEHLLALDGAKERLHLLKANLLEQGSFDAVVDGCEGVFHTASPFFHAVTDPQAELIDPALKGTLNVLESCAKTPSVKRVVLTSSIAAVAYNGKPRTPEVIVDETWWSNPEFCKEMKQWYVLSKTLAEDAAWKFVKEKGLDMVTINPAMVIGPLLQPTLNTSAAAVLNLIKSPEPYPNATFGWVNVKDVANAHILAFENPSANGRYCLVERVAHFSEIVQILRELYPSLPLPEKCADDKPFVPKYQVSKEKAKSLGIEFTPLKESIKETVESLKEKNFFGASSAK
Sequence of OePAR1.2 (Olea europaea) (chain, as listed by the source): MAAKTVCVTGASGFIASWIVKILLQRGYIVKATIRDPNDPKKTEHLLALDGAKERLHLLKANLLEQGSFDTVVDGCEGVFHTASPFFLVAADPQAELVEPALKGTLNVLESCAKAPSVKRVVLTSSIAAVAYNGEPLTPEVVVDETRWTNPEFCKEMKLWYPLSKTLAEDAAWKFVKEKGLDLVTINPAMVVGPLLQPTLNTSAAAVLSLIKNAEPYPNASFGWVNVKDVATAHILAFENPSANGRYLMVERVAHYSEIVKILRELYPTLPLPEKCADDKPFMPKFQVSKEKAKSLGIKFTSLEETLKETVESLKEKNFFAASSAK

OePAR1.2 (Olea europaea)
Km: 800 µM

OePAR1.1 (Olea europaea)
Km: 600 µM
